Measured values from patent publication US9650648.

How the values were obtained:
Assay in all cases: cell_activity
[1] = system: TALEN 102321 (gamma globin promoter) (synthetic); details: pair with 102316; K562, Cel-I
[2] = system: ZFN 34365 (gamma globin -175) (synthetic); details: pair with 31160; K562; 45.22% in CD34+; 1.63X gamma mRNA
[3] = system: ZFN 34400 (gamma globin -175) (synthetic); details: pair with 34398; K562, Cel-I
[4] = system: ZFN 44889 (BCL11A-XL) (synthetic); details: pair with 44888; K562
[5] = system: ZFN 44905 (BCL11A-XL) (synthetic); details: pair with 44904; K562
[6] = system: TALEN 101291 (BCL11A exon 2) (synthetic); details: pair with 101292; K562, Cel-I
[7] = system: TALEN 102316 (gamma globin promoter) (synthetic); details: pair with 102321; K562, Cel-I
[8] = system: ZFN 44910 (BCL11A-XL) (synthetic); details: pair with 44911; K562
[9] = system: ZFN 39145 (BCL11A exon 2) (synthetic); details: pair with 39172; CD34+ cells; 3.65X gamma mRNA
[10] = system: ZFN 44489 (BCL11A exon 2) (synthetic); details: pair with 39172; K562
[11] = system: ZFN 44490 (BCL11A exon 2) (synthetic); details: pair with 39172; K562
[12] = system: ZFN 44493 (BCL11A exon 2) (synthetic); details: pair with 39172; K562
[13] = system: ZFN 45081 (BCL11A exon 2) (synthetic); details: pair with 39172; K562
[14] = system: ZFN 44904 (BCL11A-XL) (synthetic); details: pair with 44905; K562
[15] = system: ZFN 34574 (gamma globin -110) (synthetic); details: pair with 34539; CD34+ cells; 5.38X gamma mRNA
[16] = system: ZFN 43865 (gamma globin -110) (synthetic); details: pair with 43852; CD34+ cells
[17] = system: TALEN 102318 (gamma globin promoter) (synthetic); details: pair with 102314; K562, Cel-I; 2.14X gamma mRNA in CD34+
[18] = system: ZFN 34678 (BCL11A exon 4) (synthetic); details: pair with 34642; CD34+ cells; 3.52X gamma mRNA
[19] = system: TALEN 102566 (gamma globin -110) (synthetic); details: pair with 102568; CD34+ cells, MiSeq; 6.25X gamma mRNA
[20] = system: ZFN 34363 (gamma globin -175) (synthetic); details: pair with 34360; K562, Cel-I
[21] = system: TALEN 101292 (BCL11A exon 2) (synthetic); details: pair with 101291; K562, Cel-I
[22] = system: ZFN 31160 (gamma globin -175) (synthetic); details: pair with 34365; K562; 45.22% in CD34+; 1.63X gamma mRNA
[23] = system: ZFN 43545 (beta-globin IVS1.1) (synthetic); details: pair with 43544; CD34+ cells
[24] = system: ZFN 34360 (gamma globin -175) (synthetic); details: pair with 34363; K562, Cel-I
[25] = system: TALEN 101304 (BCL11A exon 4) (synthetic); details: pair with 101301; CD34+ cells; 2.31X gamma mRNA
[26] = system: ZFN 36021 (KLF1 exon 1) (synthetic); details: pair with 36004; CD34+ cells; 2.2X gamma mRNA
[27] = system: ZFN 44888 (BCL11A-XL) (synthetic); details: pair with 44889; K562
[28] = system: TALEN 102315 (gamma globin promoter) (synthetic); details: pair with 102320; K562, Cel-I
[29] = system: ZFN 36085 (KLF1 exon 2) (synthetic); details: pair with 36071; CD34+ cells; 3.17X gamma mRNA
[30] = system: ZFN 34539 (gamma globin -110) (synthetic); details: pair with 34574; CD34+ cells; 5.38X gamma mRNA
[31] = system: ZFN 43852 (gamma globin -110) (synthetic); details: pair with 43865; CD34+ cells
[32] = system: TALEN 102568 (gamma globin -110) (synthetic); details: pair with 102566; CD34+ cells, MiSeq; 6.25X gamma mRNA
[33] = system: ZFN 44945 (BCL11A-XL) (synthetic); details: pair with 44944; K562
[34] = system: TALEN 102314 (gamma globin promoter) (synthetic); details: pair with 102318; K562, Cel-I; 2.14X gamma mRNA in CD34+
[35] = system: ZFN 36071 (KLF1 exon 2) (synthetic); details: pair with 36085; CD34+ cells; 3.17X gamma mRNA
[36] = system: ZFN 36004 (KLF1 exon 1) (synthetic); details: pair with 36021; CD34+ cells; 2.2X gamma mRNA
[37] = system: ZFN 43544 (beta-globin IVS1.1) (synthetic); details: pair with 43545; CD34+ cells
[38] = system: ZFN 34642 (BCL11A exon 4) (synthetic); details: pair with 34678; CD34+ cells; 3.52X gamma mRNA
[39] = system: ZFN 39172 (BCL11A exon 2) (synthetic); details: pair with 39145; CD34+ cells; 3.65X gamma mRNA
[40] = system: ZFN 43490 (BCL11A exon 2) (synthetic); details: pair with 39145; K562
[41] = system: ZFN 44642 (BCL11A exon 2) (synthetic); details: pair with 39145; K562
[42] = system: ZFN 45147 (BCL11A exon 2) (synthetic); details: pair with 39145; K562; printed as 41547 in Table 1B, 45147 in Table 1A
[43] = system: ZFN 45148 (BCL11A exon 2) (synthetic); details: pair with 39145; K562; printed as 41548 in Table 1B, 45148 in Table 1A
[44] = system: ZFN 44911 (BCL11A-XL) (synthetic); details: pair with 44910; K562
[45] = system: ZFN 44944 (BCL11A-XL) (synthetic); details: pair with 44945; K562
[46] = system: ZFN 44946 (BCL11A-XL) (synthetic); details: pair with 44947; K562
[47] = system: ZFN 34398 (gamma globin -175) (synthetic); details: pair with 34400; K562, Cel-I
[48] = system: TALEN 102320 (gamma globin promoter) (synthetic); details: pair with 102315; K562, Cel-I
[49] = system: ZFN 44947 (BCL11A-XL) (synthetic); details: pair with 44946; K562
[50] = system: TALEN 101301 (BCL11A exon 4) (synthetic); details: pair with 101304; CD34+ cells; 2.31X gamma mRNA

Sequence: ATATTTGCATTGAGATAG (double strand) [HBG TALEN 102321 site]
- activity [1]: 46.6 % NHEJ

Sequence: CTGTCTGAAACGGTCCCTGGCTAAACTC (double strand) [HBG -175 34400/34365 site]
- activity [2]: 53 % NHEJ
- activity [3]: 54 % NHEJ

Sequence: CTCACTGTCCACAGGAGAAGCCACACGG (double strand) [BCL11A-XL 44889 site]
- activity [4]: 35.1 % indels

Sequence: GAGAAGCCACACGGGCGAAAGGCCTTAT (double strand) [BCL11A-XL 44905 site]
- activity [5]: 25.4 % indels

Sequence: CTGTGGGCAGTGCCAGATGA (double strand) [BCL11A exon 2 TALEN 101291 site]
- activity [6]: 0.8 % indels

Sequence: GTATCCTCTTGGGGGCCCC (double strand) [HBG TALEN 102316 site]
- activity [7]: 46.6 % NHEJ

Sequence: CTCCTGTGGACAGTGAGATTGCTACAGT (double strand) [BCL11A-XL 44910 site]
- activity [8]: 36.4 % indels

Sequence: CCCAACGGGCCGTGGTCTGGTTCATCAT (double strand) [BCL11A exon 2 site, SEQ 170]
- activity [9]: 69.8 % indels
- activity [10]: 24.3 % indels
- activity [11]: 29.4 % indels
- activity [12]: 25.7 % indels
- activity [13]: 27.8 % indels

Sequence: TGGACAGTGAGATTGCTACAGTTCTTGA (double strand) [BCL11A-XL 44904 site]
- activity [14]: 25.4 % indels

Sequence: GCCTTGACAAGGCAAACTTGACCAATAG (double strand) [HBG -110 34574/43865 site]
- activity [15]: 45.7 % NHEJ
- activity [16]: 56.1 % NHEJ

Sequence: ATATTTGCATTGAGATAGTGT (double strand) [HBG TALEN 102318 site]
- activity [17]: 41.6 % NHEJ

Sequence: ATATTGCAGACAATAACCCCTTTAACCT (double strand) [BCL11A exon 4 34678 site]
- activity [18]: 82.2 % indels

Sequence: GTTGGCCAGCCTTGCCTTGAC (double strand) [HBG -110 TALEN 102566 site]
- activity [19]: 51.4 % NHEJ

Sequence: ATCTGTCTGAAACGGTCCCTGGCTAAAC (double strand) [HBG -175 34363 site]
- activity [20]: 39 % NHEJ

Sequence: CTCGATAAAAATAAGAATGT (double strand) [BCL11A exon 2 TALEN 101292 site]
- activity [21]: 0.8 % indels

Sequence: TATTTGCATTGAGATAGTGTGGGGAAGG (double strand) [HBG -175 31160 site]
- activity [22]: 53 % NHEJ

Sequence: ATCAAGGTTACAAGACAGGTTTAAGGAG (double strand) [HBB IVS1.1 43545 site]
- activity [23]: 52.6 % NHEJ

Sequence: TTGCATTGAGATAGTGTGGGGAAGGGGC (double strand) [HBG -175 34360 site]
- activity [24]: 39 % NHEJ

Sequence: GTTAAAGGGGTTATTGTCT (double strand) [BCL11A exon 4 TALEN 101304 site]
- activity [25]: 35.7 % indels

Sequence: ACACACAGGATGACTTCCTCAAGGTGGG (double strand) [KLF1 exon 1 36021 site]
- activity [26]: 44.4 % indels

Sequence: TTGCTACAGTTCTTGAAGACTTTCCCAC (double strand) [BCL11A-XL 44888 site]
- activity [27]: 35.1 % indels

Sequence: GTATCCTCTTGGGGGCCC (double strand) [HBG TALEN 102315 site]
- activity [28]: 47.9 % NHEJ

Sequence: CTTCTCGGGCCCGGAGCCCGGTGGCGCG (double strand) [KLF1 exon 2 36085 site]
- activity [29]: 22.6 % indels

Sequence: TGGTCAAGGCAAGGCTGGCCAACCCATG (double strand) [HBG -110 34539/43852 site]
- activity [30]: 45.7 % NHEJ
- activity [31]: 56.1 % NHEJ

Sequence: TTGGTCAAGTTTGCCTTGTCA (double strand) [HBG -110 TALEN 102568 site]
- activity [32]: 51.4 % NHEJ

Sequence: AAGCTCACCAGGCACATGAAAACGCATG (double strand) [BCL11A-XL 44945 site]
- activity [33]: 24 % indels

Sequence: GTATCCTCTTGGGGGCC (double strand) [HBG TALEN 102314 site]
- activity [34]: 41.6 % NHEJ

Sequence: GGTGAGGAGGAGATCCAGGTCCCAGGTG (double strand) [KLF1 exon 2 36071 site]
- activity [35]: 22.6 % indels

Sequence: GGGAAGGGGCCCAGGGCGGTCAGTGTGC (double strand) [KLF1 exon 1 36004 site]
- activity [36]: 44.4 % indels

Sequence: AATCTGCCCAGGGCCTCACCACCAACTT (double strand) [HBB IVS1.1 43544 site]
- activity [37]: 52.6 % NHEJ

Sequence: ATCCCATGGAGAGGTGGCTGGGAAGGAC (double strand) [BCL11A exon 4 34642 site]
- activity [38]: 82.2 % indels

Sequence: CTCCAGAAGGGGATCATGACCTCCTCAC (double strand) [BCL11A exon 2 site, SEQ 160]
- activity [39]: 69.8 % indels
- activity [40]: 19.9 % indels
- activity [41]: 38.5 % indels
- activity [42]: 35.6 % indels
- activity [43]: 42.3 % indels

Sequence: GCCACACGGGCGAAAGGCCTTATAAATG (double strand) [BCL11A-XL 44911 site]
- activity [44]: 36.4 % indels

Sequence: CTACTCTGGGCACAGGCATAGTTGCACA (double strand) [BCL11A-XL 44944/44946 site]
- activity [45]: 24 % indels
- activity [46]: 34.2 % indels

Sequence: TTTGCATTGAGATAGTGTGGGGAAGGGG (double strand) [HBG -175 34398 site]
- activity [47]: 54 % NHEJ

Sequence: ATATTTGCATTGAGATAGT (double strand) [HBG TALEN 102320 site]
- activity [48]: 47.9 % NHEJ

Sequence: CTCACCAGGCACATGAAAACGCATGGCC (double strand) [BCL11A-XL 44947 site]
- activity [49]: 34.2 % indels

Sequence: ATGTCCTTCCCAGCCACCTCT (double strand) [BCL11A exon 4 TALEN 101301 site]
- activity [50]: 35.7 % indels
